In test [1] the target is HLA-A*01:01. Briefly: IEDB peptide-MHC binding, purified MHC/competitive/fluorescence; ≥ and ≤ were set here for values at or beyond the usual limits of such assays.
Test [2] concerns the target HLA-A*02:01. The test is described as above.
Test [3] has as its target HLA-A*03:01. Described as above.
Test [4] addresses HLA-A*11:01. The test is described as above.
The target of a further test is HLA-A*24:02. The description is as above.
Another test concerns the target HLA-A*25:01. Described as above.
The target in the next test is HLA-A*29:02. Described as above.
Test [5] has as its target HLA-A*31:01. The test is described as above.
In test [6] the target is HLA-A*68:02. Described as above.
Test [7] deals with HLA-B*07:02. The test is described as above.
Test [8] deals with HLA-B*08:01. The test is described as above.
The next test deals with HLA-B*14:02. Described as above.
Test [9] concerns the target HLA-B*18:01. The description is as above.
The next test has as its target HLA-B*35:01. The description is as above.
The next test deals with HLA-B*37:01. The test is described as above.
The target of the next test is HLA-B*40:02. The test is described as above.
For the next test, the target named is HLA-B*44:03. The description is as above.
A further test deals with HLA-B*51:01. The description is as above.
Another test addresses HLA-B*53:01. Described as above.
Test [10] concerns the target HLA-B*58:01. The test is described as above.
Test [11] deals with HLA-A*01:01. Briefly: IEDB peptide-MHC binding, purified MHC/direct/fluorescence; filed as Kd, often an IC50 or EC50 that approximates it; ≥ and ≤ were set here for values at or beyond the usual limits of such assays. The note with it: source organism: Yersinia pestis.
In test [12] the target is HLA-A*02:01. Described as above. The note with it: source organism: Yersinia pestis.
The target of test [13] is HLA-A*03:01. The test is described as above. The note with it: source organism: Yersinia pestis.
The target of test [14] is HLA-A*11:01. The description is as above. The note with it: source organism: Yersinia pestis.
A further test deals with HLA-A*26:01. The description is as above. The note with it: source organism: Yersinia enterocolitica subsp. enterocolitica 8081.
A further test deals with HLA-A*26:03. The description is as above. The note with it: source organism: Yersinia enterocolitica subsp. enterocolitica 8081.
Test [15] concerns the target HLA-A*31:01. The description is as above. The note with it: source organism: Yersinia pestis.
Test [16] has as its target HLA-A*68:02. The description is as above. The note with it: source organism: Yersinia pestis.
The target in test [17] is HLA-B*07:02. Described as above. The note with it: source organism: Yersinia pestis.
Test [18] deals with HLA-B*08:01. Described as above. The note with it: source organism: Yersinia enterocolitica subsp. enterocolitica 8081.
In a further test the target is HLA-B*08:02. The test is described as above. The note with it: source organism: Yersinia enterocolitica subsp. enterocolitica 8081.
Another test addresses HLA-B*08:03. Described as above. The note with it: source organism: Yersinia enterocolitica subsp. enterocolitica 8081.
For a further test, the target named is HLA-B*15:01. The description is as above. The note with it: source organism: Yersinia pestis.
The target in the next test is HLA-B*15:17. The test is described as above. The note with it: source organism: Yersinia pestis.
Test [19] concerns the target HLA-B*18:01. Described as above. The note with it: source organism: Yersinia pestis.
Another test deals with HLA-B*27:05. The test is described as above. The note with it: source organism: Yersinia pestis.
A further test has as its target HLA-B*40:01. The description is as above. The note with it: source organism: Yersinia pestis.
A further test has as its target HLA-B*46:01. Described as above. The note with it: source organism: Yersinia pestis.
The target of the next test is HLA-B*48:01. Described as above. The note with it: source organism: Yersinia pestis.
The next test addresses HLA-B*57:01. The test is described as above. The note with it: source organism: Yersinia pestis.
Test [20] has as its target HLA-B*58:01. The test is described as above. The note with it: source organism: Yersinia pestis.
Another test concerns the target HLA-C*14:02. Described as above. The note with it: source organism: Homo sapiens.
Where [21] appears, read: source organism: Tarsius lariang.

One may read the IC50 as the concentration at which inhibition is half-maximal. Read a low IC50 as greater potency in that assay. As usually defined, the Kd is the equilibrium constant for the complex coming apart. Lower therefore signals tighter binding.

For the sequence TEAEKWPFF, the IC50 in the test with HLA-A*01:01 [1] (setting [21]) was no less than 20 µM; with HLA-A*02:01 [2] (setting [21]) it was no less than 20 µM; in the test with HLA-A*03:01 [3] (setting [21]), no less than 20 µM; with HLA-A*11:01 [4] (setting [21]), no less than 20 µM; with HLA-A*24:02 (setting [21]) it was 0.57 µM; in the test with HLA-A*25:01 (setting [21]), no less than 20 µM. The IC50 with HLA-A*29:02 (setting [21]), with HLA-A*31:01 [5] (setting [21]), in the test with HLA-A*68:02 [6] (setting [21]), in the test with HLA-B*07:02 [7] (setting [21]), with HLA-B*08:01 [8] (setting [21]) and with HLA-B*14:02 (setting [21]) was no less than 20 µM in each case. Also, the IC50 with HLA-B*18:01 [9] (setting [21]) is 0.0432 µM; with HLA-B*35:01 (setting [21]), no less than 20 µM; with HLA-B*37:01 (setting [21]), 0.394 µM; in the test with HLA-B*40:02 (setting [21]) it was 0.0405 µM; with HLA-B*44:03 (setting [21]), no less than 20 µM; with HLA-B*51:01 (setting [21]), no less than 20 µM. Moreover, the IC50 in the test with HLA-B*53:01 (setting [21]) and with HLA-B*58:01 [10] (setting [21]) was no less than 20 µM throughout.
Consider SDDQLRLLK, for which the Kd is no less than 20 µM in the test with HLA-A*01:01 [11]; no less than 20 µM with HLA-A*02:01 [12]; no less than 20 µM with HLA-A*03:01 [13]; 0.407 µM in the test with HLA-A*11:01 [14]; no less than 20 µM with HLA-A*26:01; no less than 20 µM in the test with HLA-A*26:03. Also, the Kd with HLA-A*31:01 [15], in the test with HLA-A*68:02 [16], with HLA-B*07:02 [17], in the test with HLA-B*08:01 [18], in the test with HLA-B*08:02 and with HLA-B*08:03 was no less than 20 µM in each case. Besides, the Kd with HLA-B*15:01, in the test with HLA-B*15:17, in the test with HLA-B*18:01 [19], in the test with HLA-B*27:05, with HLA-B*40:01 and with HLA-B*46:01 was no less than 20 µM in each case. Further, the Kd with HLA-B*48:01, with HLA-B*57:01 and in the test with HLA-B*58:01 [20] was no less than 20 µM in each case.
Regarding SYMMDDLELI, the IC50 was no less than 20 µM with HLA-A*01:01 [1] (source organism: Homo sapiens); 0.131 µM in the test with HLA-A*02:01 [2] (source organism: Homo sapiens); no less than 20 µM with HLA-A*03:01 [3] (source organism: Homo sapiens); no less than 20 µM in the test with HLA-A*11:01 [4] (source organism: Homo sapiens); 0.0113 µM in the test with HLA-A*24:02 (source organism: Homo sapiens); no less than 20 µM in the test with HLA-A*25:01 (source organism: Homo sapiens). Moreover, the IC50 was 0.824 µM with HLA-A*29:02 (source organism: Homo sapiens); no less than 20 µM with HLA-A*31:01 [5] (source organism: Homo sapiens); 0.777 µM with HLA-A*68:02 [6] (source organism: Homo sapiens); no less than 20 µM with HLA-B*07:02 [7] (source organism: Homo sapiens); no less than 20 µM with HLA-B*08:01 [8] (source organism: Homo sapiens); no less than 20 µM with HLA-B*14:02 (source organism: Homo sapiens). In addition, the IC50 with HLA-B*18:01 [9] (source organism: Homo sapiens), in the test with HLA-B*35:01 (source organism: Homo sapiens), with HLA-B*37:01 (source organism: Homo sapiens), with HLA-B*40:02 (source organism: Homo sapiens), with HLA-B*44:03 (source organism: Homo sapiens) and in the test with HLA-B*51:01 (source organism: Homo sapiens) was no less than 20 µM throughout. Further, the IC50 with HLA-B*53:01 (source organism: Homo sapiens) and with HLA-B*58:01 [10] (source organism: Homo sapiens) was no less than 20 µM in each case. The sequence also returned a Kd with HLA-C*14:02 of 0.575 µM.

These data come from the Immune Epitope Database (IEDB).
